{"source": "paper PMC6539110", "about": "“A Novel G-Quadruplex Binding Protein in Yeast—Slx9”", "binders": {"B1": {"name": "G4IX (structured_DNA)", "DNA": "AAAAAAAAAAGGGTACGGTGGGTAATAAGGGAAGGTATCGGG"}, "B2": {"name": "G4TP (G4TP1/G4TP2 in Fig. 1C) (structured_DNA)", "DNA": "AAAAAAAAAAGGGGGAGCTGGGGTAGATGGGAATGTGAGGG"}, "B3": {"name": "dsDNA (dsDNA)", "DNA 1": "GACGCTGCCGAATTCTGGCTTGCTAGGACATCTTTGCCCACGTTGACCCG", "DNA 2": "CGGGTCAACGTGGGCAAAGATGTCCTAGCAAGCCAGAATTCGGCAGCGTC"}, "B4": {"name": "4-fork (4-way junction) (dsDNA)", "DNA 1": "B3 DNA 1", "DNA 2": "CGGGTCAACGTGGGCAAAGATGTCCTAGCAATGTAATCGTCTATGACGTC", "DNA 3": "GACGTCATAGACGATTACATTGCTAGGACATGCTGTCTAGAGACTATCGC", "DNA 4": "GCGATAGTCTCTAGACAGCATGTCCTAGCAAGCCAGAATTCGGCAGCGTC"}, "B5": {"name": "bubble (dsDNA)", "DNA 1": "CGGGTCAACGTGGGCAAAGCCAATGCGATCGGCCAGAATTCGGCAGCGTC", "DNA 2": "B3 DNA 1 with A25C"}, "B6": {"name": "fork (dsDNA)", "DNA 1": "B3 DNA 1", "DNA 2": "B4 DNA 2"}, "B7": {"name": "G4mut (mut-G4IX) (ssDNA)", "DNA": "AAAAAAAAAAGCGTACGGTGCGTAATAACGCAAGCTATCGCG"}}, "key": {"Slx9 (6xHis-Slx9) [1]": {"target": "T1, Slx9 (6xHis-Slx9) (Saccharomyces cerevisiae, UniProt P53251 1-210)", "T1 sequence": "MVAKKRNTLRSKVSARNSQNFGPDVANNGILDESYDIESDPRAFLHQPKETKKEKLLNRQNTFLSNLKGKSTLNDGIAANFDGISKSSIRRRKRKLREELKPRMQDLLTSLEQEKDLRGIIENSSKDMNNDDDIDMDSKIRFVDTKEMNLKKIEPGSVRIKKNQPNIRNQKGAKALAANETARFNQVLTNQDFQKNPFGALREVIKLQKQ", "test": "filter binding; Filter binding: 50 mM Tris/HCl pH 8.0, 125 mM KCl, 5 mM DTT, 10% glycerol, 10 nM DNA, 0-65 uM Slx9, on ice 30 min; MST: 25 nM Cy5-DNA, NaCl (buffer partly given), 0.5% BSA, 0.05% Tween-20, 24 C", "settings": "protein: recombinant, tags: 6xHis (pET28a EcoRI/NotI; about 30 kDa)"}, "Slx9 (6xHis-Slx9) [2]": {"target": "T1, Slx9 (6xHis-Slx9)", "test": "filter binding; listed as G4TP2; Filter binding: 50 mM Tris/HCl pH 8.0, 125 mM KCl, 5 mM DTT, 10% glycerol, 10 nM DNA, 0-65 uM Slx9, on ice 30 min; MST: 25 nM Cy5-DNA, NaCl (buffer partly given), 0.5% BSA, 0.05% Tween-20, 24 C", "settings": "protein: recombinant; tags: 6xHis (pET28a EcoRI/NotI; about 30 kDa); label: 5' 32P; folded G4"}}, "note": "Substitutions are numbered along the chain they refer to.", "data": [{"binder": "B1", "values": [{"measurement": "Kd", "setting": "Slx9 (6xHis-Slx9) [1]; 5' Cy5 (MST), folded G4", "value": "0.55 ± 0.08", "unit": "µM"}]}, {"binder": "B2", "values": [{"measurement": "Kd", "setting": "Slx9 (6xHis-Slx9) [2]", "value": "0.53 ± 0.1", "unit": "µM"}]}, {"binder": "B3", "values": [{"measurement": "Kd", "setting": "Slx9 (6xHis-Slx9) [1]; label: 5' 32P, blunt", "value": "5.27 ± 1.18", "unit": "µM"}]}, {"binder": "B4", "values": [{"measurement": "Kd", "setting": "Slx9 (6xHis-Slx9) [1]; label: 5' 32P, four-way junction 1:2 2:3 3:4 4:1", "value": "3.72 ± 0.62", "unit": "µM"}]}, {"binder": "B5", "values": [{"measurement": "Kd", "setting": "Slx9 (6xHis-Slx9) [1]; label: 5' 32P, blunt, central mismatched bubble", "value": "1.73 ± 0.42", "unit": "µM"}]}, {"binder": "B6", "values": [{"measurement": "Kd", "setting": "Slx9 (6xHis-Slx9) [1]; label: 5' 32P, fork 1:2, 5' arm of strand 1 and 3' arm of strand 2 unpaired (about 19 nt)", "value": "4.21 ± 0.64", "unit": "µM"}]}, {"binder": "B7", "values": [{"measurement": "Kd", "setting": "Slx9 (6xHis-Slx9) [1]; 5' Cy5 (MST), cannot fold G4", "value": "15.7 ± 3.57", "unit": "µM"}]}]}
